T1: CBP-Upf1-FL (S. cerevisiae, UniProt P30771 1-971)
T1 sequence (looked up): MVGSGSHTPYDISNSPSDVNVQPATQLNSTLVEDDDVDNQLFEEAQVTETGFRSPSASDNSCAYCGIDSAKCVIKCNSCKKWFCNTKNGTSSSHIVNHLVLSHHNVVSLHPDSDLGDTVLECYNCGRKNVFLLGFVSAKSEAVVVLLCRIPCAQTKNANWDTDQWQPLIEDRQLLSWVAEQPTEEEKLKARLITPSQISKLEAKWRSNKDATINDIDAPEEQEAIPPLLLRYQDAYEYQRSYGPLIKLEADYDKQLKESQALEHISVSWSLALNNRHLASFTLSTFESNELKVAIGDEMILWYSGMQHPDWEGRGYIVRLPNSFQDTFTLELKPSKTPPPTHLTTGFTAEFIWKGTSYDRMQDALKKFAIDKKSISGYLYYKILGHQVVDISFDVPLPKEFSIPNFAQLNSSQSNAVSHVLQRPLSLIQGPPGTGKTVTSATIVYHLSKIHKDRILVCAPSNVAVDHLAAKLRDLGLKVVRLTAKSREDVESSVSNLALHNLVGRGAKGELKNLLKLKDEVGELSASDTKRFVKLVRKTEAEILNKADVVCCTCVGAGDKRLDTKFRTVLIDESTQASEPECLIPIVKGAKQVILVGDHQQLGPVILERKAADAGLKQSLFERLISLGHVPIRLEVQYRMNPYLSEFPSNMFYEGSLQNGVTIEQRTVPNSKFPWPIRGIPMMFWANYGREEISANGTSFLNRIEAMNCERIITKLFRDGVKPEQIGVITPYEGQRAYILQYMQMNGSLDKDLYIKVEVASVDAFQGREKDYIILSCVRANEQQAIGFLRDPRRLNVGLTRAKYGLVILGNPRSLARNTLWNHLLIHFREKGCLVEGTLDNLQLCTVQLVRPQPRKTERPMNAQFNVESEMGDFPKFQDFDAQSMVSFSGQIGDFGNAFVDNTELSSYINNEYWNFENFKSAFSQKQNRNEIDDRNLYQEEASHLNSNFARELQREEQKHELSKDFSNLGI

T2: CBP-Upf1-CH-HD (S. cerevisiae, UniProt P30771 54-851)
T2 sequence (looked up): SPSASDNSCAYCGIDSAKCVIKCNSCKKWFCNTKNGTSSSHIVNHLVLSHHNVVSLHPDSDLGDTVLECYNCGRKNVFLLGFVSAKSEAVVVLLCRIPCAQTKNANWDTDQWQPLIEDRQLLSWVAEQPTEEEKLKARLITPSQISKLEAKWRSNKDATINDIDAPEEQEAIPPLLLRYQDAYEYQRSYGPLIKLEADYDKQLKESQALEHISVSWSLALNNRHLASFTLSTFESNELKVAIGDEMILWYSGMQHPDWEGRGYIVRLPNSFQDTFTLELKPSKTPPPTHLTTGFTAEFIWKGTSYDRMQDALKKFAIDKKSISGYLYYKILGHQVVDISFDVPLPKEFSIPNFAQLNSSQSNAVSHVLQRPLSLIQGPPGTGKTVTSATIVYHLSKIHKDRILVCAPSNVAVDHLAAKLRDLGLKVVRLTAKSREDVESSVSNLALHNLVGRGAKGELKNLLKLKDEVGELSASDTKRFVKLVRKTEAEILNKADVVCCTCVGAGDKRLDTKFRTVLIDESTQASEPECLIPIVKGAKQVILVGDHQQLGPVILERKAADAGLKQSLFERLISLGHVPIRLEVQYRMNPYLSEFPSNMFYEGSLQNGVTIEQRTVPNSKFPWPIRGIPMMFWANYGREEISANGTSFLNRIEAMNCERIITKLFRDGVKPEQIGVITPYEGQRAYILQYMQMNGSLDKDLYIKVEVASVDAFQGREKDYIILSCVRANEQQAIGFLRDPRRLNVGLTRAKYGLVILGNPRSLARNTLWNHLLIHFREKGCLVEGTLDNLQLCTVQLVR

T3: CBP-Upf1-HD (S. cerevisiae, UniProt P30771 221-851)
T3 sequence (looked up): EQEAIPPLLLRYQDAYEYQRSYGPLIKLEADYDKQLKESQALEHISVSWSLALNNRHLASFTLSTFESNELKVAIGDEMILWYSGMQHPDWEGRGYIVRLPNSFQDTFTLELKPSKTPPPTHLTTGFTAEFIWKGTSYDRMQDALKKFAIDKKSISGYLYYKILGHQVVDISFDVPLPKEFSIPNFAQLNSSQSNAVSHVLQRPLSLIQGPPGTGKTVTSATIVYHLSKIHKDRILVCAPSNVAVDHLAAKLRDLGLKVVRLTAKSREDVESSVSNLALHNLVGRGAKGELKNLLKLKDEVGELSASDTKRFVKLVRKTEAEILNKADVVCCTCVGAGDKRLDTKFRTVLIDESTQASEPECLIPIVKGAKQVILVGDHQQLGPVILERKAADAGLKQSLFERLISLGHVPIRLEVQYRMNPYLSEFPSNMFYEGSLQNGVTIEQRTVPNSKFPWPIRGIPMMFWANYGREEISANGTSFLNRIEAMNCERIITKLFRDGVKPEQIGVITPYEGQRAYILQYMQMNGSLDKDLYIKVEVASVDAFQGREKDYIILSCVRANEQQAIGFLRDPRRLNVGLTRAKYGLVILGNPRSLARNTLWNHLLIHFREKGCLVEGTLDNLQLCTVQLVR

T4: CBP-Upf1-HD-Ct (S. cerevisiae, UniProt P30771 221-971)
T4 sequence (looked up): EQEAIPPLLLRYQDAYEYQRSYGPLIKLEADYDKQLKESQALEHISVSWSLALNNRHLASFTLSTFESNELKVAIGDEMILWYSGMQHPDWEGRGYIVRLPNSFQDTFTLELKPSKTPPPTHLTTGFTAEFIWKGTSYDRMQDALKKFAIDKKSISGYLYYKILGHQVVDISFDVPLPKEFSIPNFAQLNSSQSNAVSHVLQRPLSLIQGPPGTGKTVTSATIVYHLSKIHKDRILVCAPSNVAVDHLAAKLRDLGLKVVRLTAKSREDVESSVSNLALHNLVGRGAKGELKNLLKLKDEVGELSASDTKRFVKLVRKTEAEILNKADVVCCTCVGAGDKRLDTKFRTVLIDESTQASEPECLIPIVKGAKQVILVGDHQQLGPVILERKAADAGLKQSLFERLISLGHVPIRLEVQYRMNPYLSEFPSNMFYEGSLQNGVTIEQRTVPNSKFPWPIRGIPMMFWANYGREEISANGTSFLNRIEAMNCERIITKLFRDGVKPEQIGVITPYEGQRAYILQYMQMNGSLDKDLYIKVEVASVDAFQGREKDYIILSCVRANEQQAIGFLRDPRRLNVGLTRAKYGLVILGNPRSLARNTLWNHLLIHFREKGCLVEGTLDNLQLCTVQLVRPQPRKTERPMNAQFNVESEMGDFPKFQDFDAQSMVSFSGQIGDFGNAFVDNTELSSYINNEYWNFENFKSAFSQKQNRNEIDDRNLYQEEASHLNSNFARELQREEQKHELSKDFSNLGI


Columns and labels:
Test in all cases: pull-down
CBP-Upf1-FL = target: T1, CBP-Upf1-FL
CBP-Upf1-CH-HD = target: T2, CBP-Upf1-CH-HD
CBP-Upf1-HD = target: T3, CBP-Upf1-HD
CBP-Upf1-HD-Ct = target: T4, CBP-Upf1-HD-Ct

| binding result (CBP-Upf1-FL) | binding result (CBP-Upf1-CH-HD) | binding result (CBP-Upf1-HD) | binding result (CBP-Upf1-HD-Ct) | Binder |
| --- | --- | --- | --- | --- |
| binds |  |  |  | GST-Ebs1 (aa 1-591) (domain or fragment, S. cerevisiae, UniProt Q03466 1-591, looked up) MEPSNTQKEDLPTAFNGIKSQLNSILKSNQLFQDYALLNGFLAFVHSKLNAAILTSIESQCGKSFAADLDSFDQSSISSILDFSWESVHYPIFKWFQMWRNYILFEKENKKQQTKFIDFRKMNSKMLKFFKTVQNFYVNVINTVYKKYDISVLLPKRIIQDLKLSDIENTTNVGDILAVKTFNSSSPLAHLIPTLFHRCLLFLGTAYRYKTLLEEISNKYSISNFKKSLDFFRLASLVLPSAGETYSQAGAIFLQTGNLGIAVFNFVKGMMTKMPSPVSIKNFGALMVDNKSSLNRSLHTTIMNTYLQESKGPRTPAKEILEFYFLGLFGSVWSPTSWRDDTKPNQLNNGIKLRHLENALYETMSARYLNNIKTIFHNLIITIGGFHLLLKRRSDVSAKTLKDLRSNELDYLNFAFKYIAHILNDIVKESWSENPEVSEILGMVRIINCWIKANPMVLQYSQSNLEFVNALAYLINDIVKKKPSPSFSITEHIPKRTYWFEEDLMVKGLSFVNFQLSDFDDYEKILEMDHSLDRLIGNPPLCDKLSASSEMLLRLQAVVNISSQLLQNNNCGVEWSDNKSRYIFNKKIGFK |
| binds |  |  |  | HisSUMO-tagged Ebs1 (aa 1-591) (domain or fragment, S. cerevisiae, UniProt Q03466 1-591, looked up) MEPSNTQKEDLPTAFNGIKSQLNSILKSNQLFQDYALLNGFLAFVHSKLNAAILTSIESQCGKSFAADLDSFDQSSISSILDFSWESVHYPIFKWFQMWRNYILFEKENKKQQTKFIDFRKMNSKMLKFFKTVQNFYVNVINTVYKKYDISVLLPKRIIQDLKLSDIENTTNVGDILAVKTFNSSSPLAHLIPTLFHRCLLFLGTAYRYKTLLEEISNKYSISNFKKSLDFFRLASLVLPSAGETYSQAGAIFLQTGNLGIAVFNFVKGMMTKMPSPVSIKNFGALMVDNKSSLNRSLHTTIMNTYLQESKGPRTPAKEILEFYFLGLFGSVWSPTSWRDDTKPNQLNNGIKLRHLENALYETMSARYLNNIKTIFHNLIITIGGFHLLLKRRSDVSAKTLKDLRSNELDYLNFAFKYIAHILNDIVKESWSENPEVSEILGMVRIINCWIKANPMVLQYSQSNLEFVNALAYLINDIVKKKPSPSFSITEHIPKRTYWFEEDLMVKGLSFVNFQLSDFDDYEKILEMDHSLDRLIGNPPLCDKLSASSEMLLRLQAVVNISSQLLQNNNCGVEWSDNKSRYIFNKKIGFK |
| binds | binds | binds | binds | TS-Nmd4-His (natural protein, S. cerevisiae, UniProt Q12129 1-218, looked up) MTQYNFIIDASAFEKGLGNIKRWCSDCTEAVTLNFYIPTFTLNELDFLQQRRKSFAARESLKFIDRLDDSKFANLKVFIEFPEVLDIILWSDVMEHNDSSGKINIAKLPKRLKNLLKSCIYKCYLEGNEGLHWFLISEDPQIREMAMQCNIPSCSIVDVDSILSKDMNDKSFRESEKFNNMMLKNGTKEESENGREIIRTNFNKTVYASRGTGELWSP |
| binds | binds |  |  | GST-Dcp2-UBD (domain or fragment, S. cerevisiae, UniProt P53550 434-720, looked up) GYSSSSPGQLLDILNSKKPDSNVQSSKKPKLKILQRGTDLNSIKQNNNDETAHSNSQALLDLLKKPTSSQKIHASKPDTSFLPNDSVSGIQDAEYEDFESSSDEEVETARDERNSLNVDIGVNVMPSEKDSRRSQKEKPRNDASKTNLNASAESNSVEWGPGKSSPSTQSKQNSSVGMQNKYRQEIHIGDSDAYEVFESSSDEEDGKKLEELEQTQDNSKLISQDILKENNFQDGEVPHRDMPTESNKSINETVGLSSTTNTVKKVPKVKILKRGETFASLANDKKA |
| binds | binds |  |  | GST-Dcp2-UBD1 (domain or fragment, S. cerevisiae, UniProt P53550 434-508, looked up) GYSSSSPGQLLDILNSKKPDSNVQSSKKPKLKILQRGTDLNSIKQNNNDETAHSNSQALLDLLKKPTSSQKIHAS |

— publication doi:10.1101/2024.12.18.629111 (bioRxiv, 2024)
